The source of these data is patent US20200102347A1 (AUCTUS BIOLOGIES, published 2020).

As usually defined, the Kd is the equilibrium constant for the complex coming apart. As usually defined, the kon is the second-order rate constant of association. For orientation: koff means the rate constant with which the complex falls apart. A low value points to slow dissociation. One may read the EC50 (read off the curve) as the concentration needed to bring the measured effect to its halfway point.

No end group written: not given here. *: point of attachment. RhodamineB = CCN(CC)c1ccc2c(-c3ccccc3C(=O)*)c3ccc(=[N+](CC)CC)cc-3oc2c1 Bounds are passed on as bounds.

B2: NativeRPtag(large)_with_Tags_and_Cys (other)
chain: MGSSCHHHHHHSQDPNSSSMKEGKTIGLVISTLNNPFFVTLKNGAEEKAKELGYKIIVEDSQNDSSKELSNVEDLIQQKVDVLLINPVDSDAVVTAIKEANSKNIPVITIDRSANGGDVVSHIASDNVKGGEMAAEFIAKALKGKGNVVELEGIPGASAARDRGKGFDEAIAKYPDIKIVAKQAADFDRSKGLSVMENILQAQPKIDAVFAQNDEMALGAIKAIEAANRQGIIVVGFDGTEDALKAIKEGKMAATIAQQPALMGSLGVEMADKYLK
notes: Unlabeled in anisotropy assays; coupled through the engineered N-terminal Cys to SulfoLink agarose or maleimide plates in column, pull-down and ELISA assays
B3: RP-Tag Small (Sequence 3: SEQ ID NO:13 with a glycine serine tail) (peptide)
peptide: RhodamineB-GEKIPNFIPAELKLITKENVQGS
modifications: also: N-terminal label: Rhodamine B / Rhodamine 6B
notes: also called RP-small peptide

Test [1] has as its target B2. The experiment in a line: fluorescence anisotropy. Background: In fluorescence polarisation assays a small probe gives low polarisation when free and higher when bound to something large.
The target of test [2] is B2. As to the kind of experiment: calculated from koff and Kd.
The target of test [3] is B2. The experiment in a line: fluorescence anisotropy kinetics.
Test [4] concerns the target B2. The experiment in a line: fluorescence anisotropy, competitor chase.
Test [5] concerns the target B2. As to the kind of experiment: fluorescence anisotropy, association kinetics.
Test [6] concerns the target T1, NativeRPtag(large)_with_Tags_and_Cys (Thermoanaerobacter tengcongensis).
T1 chain: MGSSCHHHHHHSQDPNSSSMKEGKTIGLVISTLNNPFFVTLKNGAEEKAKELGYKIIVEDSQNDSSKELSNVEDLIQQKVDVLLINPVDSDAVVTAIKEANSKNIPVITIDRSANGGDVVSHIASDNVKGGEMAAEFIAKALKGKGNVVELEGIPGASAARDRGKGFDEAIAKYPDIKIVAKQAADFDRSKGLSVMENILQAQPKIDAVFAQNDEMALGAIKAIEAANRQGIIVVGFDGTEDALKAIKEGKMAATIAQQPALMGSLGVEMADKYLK
The experiment in a line: fluorescence anisotropy; KCl (3M).

The target in test [7] is T1, NativeRPtag(large)_with_Tags_and_Cys …. As to the kind of experiment: fluorescence anisotropy; PG (50%).
The target is the same in test [8]. As to the kind of experiment: fluorescence anisotropy; BME (10%).
Test [9] has the same target. As to the kind of experiment: fluorescence anisotropy; NaCl (3M).
For test [10] the target is unchanged. The experiment in a line: pull-down with RPtag(large) resin.
Test [11] has the same target. As to the kind of experiment: fluorescence anisotropy; MgCl2 (3M).
The target is the same in test [12]. As to the kind of experiment: fluorescence anisotropy; NH4SO4 (3M).
Test [13] shares this target. As to the kind of experiment: fluorescence anisotropy; ribose (3M).
For test [14] the target is unchanged. As to the kind of experiment: fluorescence anisotropy; DTT (100 mM).
The target is the same in test [15]. As to the kind of experiment: fluorescence anisotropy; Tween20 (2%).
Test [16] shares this target. The experiment in a line: fluorescence anisotropy; MnSO4 (10 mM).
The target is the same in test [17]. The experiment in a line: fluorescence anisotropy; acetone (20%).
Test [18] shares this target. As to the kind of experiment: fluorescence anisotropy; sorbitol (3M).
Test [19] shares this target. The experiment in a line: fluorescence anisotropy; NiCl2 (100 mM).
Test [20] shares this target. As to the kind of experiment: fluorescence anisotropy; glycerol (20%).
Test [21] has the same target. As to the kind of experiment: fluorescence anisotropy; TritonX-100 (2%).
The target is the same in test [22]. As to the kind of experiment: fluorescence anisotropy; DMSO (20%); DMSO (20%).
For test [23] the target is unchanged. The experiment in a line: fluorescence anisotropy; EtOH (20%); EtOH (20%).
Test [24] has the same target. As to the kind of experiment: fluorescence anisotropy; MeOH (20%); MeOH (20%).
For test [25] the target is unchanged. As to the kind of experiment: fluorescence anisotropy, buffer additive screen.
For test [26] the target is unchanged. The experiment in a line: fluorescence anisotropy; 50 mM Tris pH 8.0, 0.005% Tween 20, no additive (Table 2).
The target is the same in test [27]. As to the kind of experiment: fluorescence anisotropy; No Additive; No Additive; 100 mM Tris pH 8.0, 0.005% Tween 20 (Table 3).
For test [28] the target is unchanged. As to the kind of experiment: fluorescence anisotropy, competitor chase; 50 mM Tris pH 8.0, 0.005% Tween 20, no additive (Table 2).
The target of test [29] is T2, NativeRPtag small for immobilization (Thermoanaerobacter tengcongensis, C-terminal Cys (GGC) coupled to SulfoLink agarose resin).
T2 construct: also called immobilized RPtag (small)
T2 peptide: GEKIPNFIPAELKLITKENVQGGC
The experiment in a line: column binding; non-complementary tagRFP fusion applied to immobilized RPtag (small), washed, photographed.

The target in test [30] is B2. As to the kind of experiment: column binding; 25 mL of 1 µM tagRFP fusion applied to immobilized RPtag (large), washed with 10 mL TNE buffer, photographed.
Description: After purification of the tagged proteins, each was applied to its complementary column to evaluate binding. […] Briefly, columns were first equilibrated in 20 mM Tris pH 8.0, 150 mM NaCl, 1 mM EDTA (TNE buffer), then 25 mL of 1 μM tagged protein in TNE buffer was applied to the column at a flow rate of 1 ml/min, then washed with 10 mL of TNE buffer. Columns were cleaned with 10 mL 100 mM Glycine pH 1.5 between uses.
Briefly, columns were equilibrated in 20 mM Tris pH 8.0, 150 mM NaCl, 1 mM EDTA (TEN buffer), then 25 mL of 1 μM tagged protein in TEN buffer was applied to the column at a flow rate of 1 ml/min. Thereafter, the column was washed with 10 mL of TEN buffer, and the results recorded by photograph (FIG. 8). Columns were cleaned with 10 mL 100 mM Glycine pH 1.5 between uses.
Test [31] deals with T3, native RPtag(small) (Thermoanaerobacter tengcongensis, N-terminal rhodamine).
T3 construct: Synthetic peptide
T3 peptide: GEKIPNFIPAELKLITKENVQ
As to the kind of experiment: fluorescence anisotropy.
Description: (§1) Kd's were calculated according to the equation f=y0+(ymax−y0)*(Ptot+x+Kd−sqrt((Ptot+x+Kd)\hat{ }2−4*Ptot*x))/(2*Ptot), where y0 is the baseline anisotropy, ymax is the maximum anisotropy, Ptot is the fixed concentration of labeled peptide used, x is the variable concentration of protein used, and Kd is the measured Kd.

Test [32] addresses T3, native RPtag(small). As to the kind of experiment: fluorescence anisotropy, 1 nM rhodamine peptide.
Description: as §1
Test [33] deals with B3. As to the kind of experiment: fluorescence anisotropy, 50 nM Rhodamine B RP-Tag Small.
Description: (§2) Anisotropy was then measured, and a Kd calculated by fitting the data to the equation f=y₀+(yₘₐₓ−y₀)*(Pₜₒₜ+x+Kd−sqrt((Pₜₒₜ+x+Kd)\hat{ }2-4*Pₜₒₜ*x))/(2*Pₜₒₜ), where y₀ is the baseline anisotropy, yₘₐₓ is the maximum anisotropy, Pₜₒₜ is the fixed concentration of labeled peptide used, x is the variable concentration of protein used, and Kd is the measured Kd.
The target of test [34] is T4, MaturePDGF-β_NterminalPeptide.
T4 construct: an N-terminal G was added and is left out of the numbering; also called PDGF-β peptide
T4 peptide: RhodamineB-GSLGSLTIAEPAMIAE
The experiment in a line: fluorescence anisotropy, 20 nM rhodamine PDGF-β N-terminal peptide.
Description: (§3) After the incubation, fluorescence anisotropy was measured, and the resultant curves were fit with the equation f=y0+(ymax−y0)*(Ptot+x+Kd−sqrt((Ptot+x+Kd)\hat{ }2−4*Ptot*x))/(2*Ptot), where y0 is the baseline anisotropy, ymax is the maximum anisotropy, Ptot is the fixed concentration of labeled peptide used, x is the variable concentration of protein used, and Kd is the measured Kd. […] Buffer was 50 mM Tris pH 8.0, 0.005% Tween20.

For test [35], the target named is T3, native RPtag(small). The experiment in a line: fluorescence anisotropy; 1 nM rhodamine native RPtag (small), RPtag (large) titrated.
Description: as §1
A further test addresses T5, RPtag(small) Nd2, Cd4 (Thermoanaerobacter tengcongensis).
T5 peptide: RhodamineB-KIPNFIPAELKLITK
As to the kind of experiment: fluorescence anisotropy; 2 nM rhodamine Nd2Cd4, unlabeled RPtag large variant titrated; bar of Ka = 1/Kd, right axis.

Test [36] deals with T3, native RPtag(small). The experiment in a line: fluorescence anisotropy after a 15 min 121 C autoclave cycle of RP-tag (large); RP-tag (large) autoclaved 15 min at 121 C before the measurement.
The next test addresses T6, RPtag(small) l14a (Thermoanaerobacter tengcongensis, N-terminal rhodamine).
T6 peptide: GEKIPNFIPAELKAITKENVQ
The experiment in a line: fluorescence anisotropy; 1 nM rhodamine RPtag small peptide, unlabeled RPtag large titrated, 1 h; 50 mM Tris pH 8.0, 0.005% Tween20; bar of Ka = 1/Kd.

The target in a further test is T7, RPtag(small) l14k (Thermoanaerobacter tengcongensis, N-terminal rhodamine).
T7 construct: also called L14K RPtag(small)
T7 peptide: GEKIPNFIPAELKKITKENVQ
The test is described as above.

The target of test [37] is B3. As to the kind of experiment: fluorescence anisotropy; 50 nM N-terminal Rhodamine B RP-Tag Small, RP-Tag Large titrated; 50 mM Tris pH 8.0, 150 mM NaCl, 10 mM 2-mercaptoethanol, 0.005% Tween 20.
Description: as §2
Another test addresses T8, Bovine Serum Albumin (bovine, UniProt P02769 25-607).
T8 construct: also called BSA
The experiment in a line: fluorescence anisotropy; 50 nM N-terminal Rhodamine B RP-Tag Small, BSA titrated.

T8 sequence (P02769 25-607 limits assumed): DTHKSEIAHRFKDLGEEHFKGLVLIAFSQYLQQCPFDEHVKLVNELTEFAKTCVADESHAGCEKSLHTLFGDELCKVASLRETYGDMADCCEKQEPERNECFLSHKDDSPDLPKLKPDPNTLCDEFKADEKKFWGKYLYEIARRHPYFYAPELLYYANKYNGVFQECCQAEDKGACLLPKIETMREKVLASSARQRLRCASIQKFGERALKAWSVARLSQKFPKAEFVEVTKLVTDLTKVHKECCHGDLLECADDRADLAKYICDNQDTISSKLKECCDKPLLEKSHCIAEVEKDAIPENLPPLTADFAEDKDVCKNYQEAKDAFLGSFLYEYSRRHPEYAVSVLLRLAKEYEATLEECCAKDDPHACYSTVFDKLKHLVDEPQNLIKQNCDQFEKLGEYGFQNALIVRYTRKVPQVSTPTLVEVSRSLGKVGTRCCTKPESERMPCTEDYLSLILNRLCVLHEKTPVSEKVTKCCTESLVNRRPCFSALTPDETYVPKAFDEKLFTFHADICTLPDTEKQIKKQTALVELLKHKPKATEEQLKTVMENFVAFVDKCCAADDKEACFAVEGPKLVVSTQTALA
Description for Bovine Serum Albumin: as §2
Description for RPtag(small) Nd2, Cd4: as §3
Description for RPtag(small) l14a: (§4) Resultant curves were fit with the equation f=y0+(ymax−y0)*(Ptot+x+Kd−sqrt((Ptot+x+Kd)\hat{ }2−4*Ptot*x))/(2*Ptot), where y0 is the baseline anisotropy, ymax is the maximum anisotropy, Ptot is the fixed concentration of labeled peptide used, x is the variable concentration of protein used, and Kd is the measured Kd. […] Buffer was 50 mM Tris pH 8.0, 0.005% tween20.
Description for RPtag(small) l14k: as §4

As to RhodamineB-GEKIANFIPAELKLITKENVQ [RPtag(small) p5a], the equilibrium dissociation constant (Kd) in [1] was determined as 0.23 nM. Further, the association rate constant (kon) in [2] is 1.83e+06 M⁻¹ s⁻¹. Besides, the “fold increase of kon and koff against native” value in test [3] was about 7 fold. The same molecule gave a koff in [4] of 0.0004 s⁻¹. For the same molecule, in test [5], the “Keq (S-S*)” value amounted to 1.8, the “kf (S to S*)” value is 0.093 min⁻¹ and the “kr (S* to S)” value was determined as 0.052 min⁻¹.

PAELKLITK (modifications not checked) [RPtag(small) Nd8, Cd4]: the Kd in test [6] amounted to 0.066 nM; in test [7], 4600 nM; in test [8] it was 740 nM; in test [9] it was 0.15 nM; in test [11], 240 nM; in test [12], 2.8 nM. In addition, the Kd in test [13] was found to be 42 nM; in test [14] it was 33 nM; in test [15], 45 nM; in test [16], 160 nM; in [17], 22 nM; in [18], 16 nM. Further, the dissociation constant (Kd) in [19] is 42 nM; in test [20], 27 nM; in test [21], 180 nM; in test [22], 140 nM; in test [23], 733 nM; in test [24] it was 34 nM. The dissociation constant Kd in test [26] and in test [27] was 14 nM throughout. Also, the resin binding capacity in test [10] came out at 200 nmol/mL. Also, the fold increase of affinity with kosmotropic salts (NaCl, KCl) in test [25] is over 100 fold. The molecule further showed an off-rate (koff) in test [28] of over 0.0333 s⁻¹.

B1: Cterminally_tagged_NativeRPtag(small)_tagRFP (other)
chain: MGSSHHHHHHHHGSMVSKGEELIKENMHMKLYMEGTVNNHHFKCTSEGEGKPYEGTQTMRIKVVEGGPLPFAFDILATSFMYGSRTFINHTQGIPDFFKQSFPEGFTWERVTTYEDGGVLTATQDTSLQDGCLIYNVKIRGVNFPSNGPVMQKKTLGWEANTEMLYPADGGLEGRSDMALKLVGGGHLICNFKTTYRSKKPAKNLKMPGVYYVDHRLERIKEADKETYVEQHEVAVARYCDLPSKLGHKLNGSSGENLYFQGGSGEKIPNFIPAELKLITKENVQGS
notes: Fusion of 8XHis, tagRFP, TEV site and RPtag(small)
Consider B1, for which the binding result in [29] was “no binding (tested: 1 µM (25 mL applied))”; in test [30] it was “binds”.

For the molecule B2, the “fold better Kd than anti-6xHis/6xHis” value with native RPtag(small) [31] is about 30 fold. Moreover, the “fold selectivity over BSA” value with native RPtag(small) [31] was over 50000 fold. Further, the Kd was 0.2 nM with native RPtag(small) [32], 8 nM in test [33], 7300 nM in [34] and 53 nM in the test with native RPtag(small) [36]. In addition, the “EC50 (read off the curve)” value with native RPtag(small) [35] is about 0.8 nM; in [37], about 30 nM. Further, the binding result was “binds” with RPtag(small) Nd2, Cd4; “binds” in the test with RPtag(small) l14a; “binds” in the test with RPtag(small) l14k.

Turning to B3, the binding result in the test with Bovine Serum Albumin is “no binding”.
